Measured values published in PMC9569350, “Antarctic aldehyde dehydrogenase from Flavobacterium PL002 as a potent catalyst for acetaldehyde determination in wine” (Scientific Reports, 2022).

Legend:
[1] = system: NC(=O)c1ccc[n+]([C@@H]2O[C@H](COP(=O)(O)OP(=O)(O)OC[C@H]3O[C@@H](n4cnc5c(N)ncnc54)[C@H](O)[C@@H]3O)[C@@H](O)[C@H]2O)c1; experiment: purified protein; conditions: 10 mM acetaldehyde (saturating), 100 mM potassium phosphate pH 7.5, 25 °C, free enzyme, varied: cofactor
CC=O = experiment: purified protein; conditions: 10 mM NAD+ (saturating), 100 mM potassium phosphate pH 7.5, 25 °C, free enzyme

In the case of S2-ALDH (Flavobacterium sp. PL002), the Km [1] is reported as 2870 ± 480 µM, the Vmax [1] is reported as 0.74 µmol/min/mg and the kcat [1] is reported as 0.121 ± 0.026 s⁻¹. For the same substance, the kcat/Km [1] was 42.2 ± 7.05 M⁻¹ s⁻¹, the Km (CC=O) was 1880 ± 700 µM and the Vmax (CC=O) was 2.64 µmol/min/mg. It also gave a kcat (CC=O) of 0.432 ± 0.025 s⁻¹ and a kcat/Km (CC=O) of 230 ± 85.2 M⁻¹ s⁻¹.
